Data taken from patent publication US20240270821A1, “GIP/GLP1/GCG TRI-RECEPTOR AGONISTS AND USES THEREOF” (priority 2023, published 2024).
Starred links: 1 amine or outer side, 2 acyl side, 3 side chain; linkers in the order of their positions; H or OH if unused. Non-standard residues stand in square brackets, D forms with d. Groups on a side chain read outwards from the residue. No end group written: not given here. *: point of attachment. C18 diacid = O=C(O)CCCCCCCCCCCCCCCCC(=O)*; γGlu = O=C(O)[C@H](CCC(=O)[*:2])N[*:1]; αMeL = CC(C)C[C@](C)(N)C(=O)O; Dab = NCC[C@H](N)C(=O)O; AEEA = NCCOCCOCC(=O)O; Aib = CC(C)(N)C(=O)O

Columns and labels:
Assay in all cases: cell-based or functional assay
[1] = biological target: T1, human GIP receptor (human) (UniProt P48546)
T1 sequence (looked up): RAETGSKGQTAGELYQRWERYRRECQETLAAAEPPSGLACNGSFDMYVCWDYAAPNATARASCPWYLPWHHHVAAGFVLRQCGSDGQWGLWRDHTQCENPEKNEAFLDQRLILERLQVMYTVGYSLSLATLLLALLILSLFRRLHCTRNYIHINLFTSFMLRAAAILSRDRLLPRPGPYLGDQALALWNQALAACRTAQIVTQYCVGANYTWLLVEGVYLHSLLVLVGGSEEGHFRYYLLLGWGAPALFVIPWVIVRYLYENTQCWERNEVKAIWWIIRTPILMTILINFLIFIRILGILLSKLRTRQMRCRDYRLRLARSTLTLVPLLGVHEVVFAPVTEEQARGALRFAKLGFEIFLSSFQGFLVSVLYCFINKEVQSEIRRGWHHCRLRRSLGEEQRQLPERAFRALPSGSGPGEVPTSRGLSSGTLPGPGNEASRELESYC

hGLP-1R = hGLP-1R (Homo sapiens, UniProt P43220)
Chain of hGLP-1R (P43220 24-463): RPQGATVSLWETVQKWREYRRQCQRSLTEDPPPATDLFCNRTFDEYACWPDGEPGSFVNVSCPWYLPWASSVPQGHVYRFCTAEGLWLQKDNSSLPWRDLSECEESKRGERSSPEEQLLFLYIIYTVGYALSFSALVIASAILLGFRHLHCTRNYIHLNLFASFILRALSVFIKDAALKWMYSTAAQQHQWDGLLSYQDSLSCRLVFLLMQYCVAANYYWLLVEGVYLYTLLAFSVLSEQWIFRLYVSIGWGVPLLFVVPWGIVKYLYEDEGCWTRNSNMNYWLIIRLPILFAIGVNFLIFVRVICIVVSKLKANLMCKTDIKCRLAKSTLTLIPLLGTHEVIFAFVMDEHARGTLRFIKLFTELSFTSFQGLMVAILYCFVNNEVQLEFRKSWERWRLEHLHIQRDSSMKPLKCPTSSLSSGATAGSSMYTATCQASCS

[2] = biological target: human glucagon receptor (human) (UniProt P47871)
Chain of human glucagon receptor (human) (P47871 26-477): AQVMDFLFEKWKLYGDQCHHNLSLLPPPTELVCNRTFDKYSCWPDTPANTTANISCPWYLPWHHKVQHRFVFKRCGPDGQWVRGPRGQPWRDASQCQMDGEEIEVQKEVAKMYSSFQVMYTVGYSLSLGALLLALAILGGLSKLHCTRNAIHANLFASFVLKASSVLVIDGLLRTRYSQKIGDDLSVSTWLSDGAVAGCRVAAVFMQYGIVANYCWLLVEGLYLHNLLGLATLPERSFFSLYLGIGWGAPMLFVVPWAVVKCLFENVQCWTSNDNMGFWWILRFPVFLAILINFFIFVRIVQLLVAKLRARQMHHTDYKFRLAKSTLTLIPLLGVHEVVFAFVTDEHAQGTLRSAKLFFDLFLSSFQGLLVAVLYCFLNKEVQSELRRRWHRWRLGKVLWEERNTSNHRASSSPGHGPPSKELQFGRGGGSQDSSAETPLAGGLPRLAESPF

Binder	Relative cAMP EC50 [1]	cAMP Rel EC50, nM (in the presence of 1% HSA) [1]	Relative cAMP EC50 (hGLP-1R)	cAMP Rel EC50, nM (in the presence of 1% HSA) (hGLP-1R)	Relative cAMP EC50 [2]	cAMP Rel EC50, nM (in the presence of 1% HSA) [2]	cAMP Rel EC50 (in the presence of 1% HSA) [1]	cAMP Rel EC50 (in the presence of 1% HSA) (hGLP-1R)	cAMP Rel EC50 (in the presence of 1% HSA) [2]	Relative cAMP EC50, nM (0.1% casein) [1]	cAMP Rel EC50, nM (1% HSA) [1]	Relative cAMP EC50, nM (0.1% casein) (hGLP-1R)	cAMP Rel EC50, nM (1% HSA) (hGLP-1R)	Relative cAMP EC50, nM (0.1% casein) [2]	cAMP Rel EC50, nM (1% HSA) [2]
YXQGTFTSDFSXXLDKKAQXAFIEWLLEGGESSGEPPPSGE (synthetic construct; SITE 2: note = 2-Aminoisobutyric Acid; SITE 12: note = L-ornithine; SITE 13: note = alpha-methyl-leucine; SITE 17: note = Lysine is chemically modified through conjugation of the epsilon-amino group of the Lysine side chain with (2-[2-(2-Amino-ethoxy)-ethoxy]-acetyl)-(gamma-Glu)) [Example 123]	0.531 nM	94.6 nM	4.82 nM	1500 nM	4.55 nM	1740 nM									
YXQGTFTSDFSXXLDKKAQXAFIEWLLEGGHSSGEPPPSGE (synthetic construct; SITE 2: note = 2-Aminoisobutyric Acid; SITE 12: note = L-ornithine; SITE 13: note = alpha-methyl-leucine; SITE 17: note = Lysine is chemically modified through conjugation of the epsilon-amino group of the Lysine side chain with (2-[2-(2-Amino-ethoxy)-ethoxy]-acetyl)-(gamma-Glu)) [Example 124]	0.344 nM	54.7 nM	6.14 nM	801 nM	2.92 nM	567 nM									
YXQGTFTSDFSXXLDKKAQXAFIEYLLEAGPSSGAPPPSGE (synthetic construct; SITE 2: note = 2-Aminoisobutyric Acid; SITE 12: note = L-ornithine; SITE 13: note = alpha-methyl-leucine; SITE 17: note = Lysine is chemically modified through conjugation of the epsilon-amino group of the Lysine side chain with (2-[2-(2-Amino-ethoxy)-ethoxy]-acetyl)2-(gamma-Glu)) [Example 128]	0.307 nM	24.3 nM	3.5 nM	679 nM	6.76 nM	1090 nM									
Y[Aib]QGTFTSDFS[Dab][αMeL]LDKK([AEEA-γGlu-C18 diacid])AQ[Aib]AFIEYLLE[Aib]GPSSGAPPPSGS-NH2 (ends and bridges not checked) [Example 133]	0.15 nM	23.1 nM	3.6 nM	1180 nM	1.64 nM	642 nM									
YXQGTFTSDFSKXLDKKAQXAFIEYLLEGAPSSGAPPPSEG (synthetic construct; SITE 2: note = 2-Aminoisobutyric Acid; SITE 13: note = alpha-methyl-leucine; SITE 17: note = Lysine is chemically modified through conjugation of the epsilon-amino group of the Lysine side chain with (2-[2-(2-Amino-ethoxy)-ethoxy]-acetyl)-(gamma-Glu)-CO-(CH2) 18-CO2H; SITE 20: n) [Example 47]	0.388 nM		3.4 nM		5.61 nM										
YXQGTFTSDFSKXLDKKAQXAFIEYLLAGGPSSGEPPPGGS (synthetic construct; SITE 2: note = 2-Aminoisobutyric Acid; SITE 13: note = alpha-methyl-leucine; SITE 17: note = Lysine is chemically modified through conjugation of the epsilon-amino group of the Lysine side chain with (2-[2-(2-Amino-ethoxy)-ethoxy]-acetyl)-(gamma-Glu)-CO-(CH2) 18-CO2H; SITE 20: n) [Example 9]	0.205 nM		1.61 nM		7.19 nM		41.8 nM	402 nM	1430 nM						
YXQGTFTSDFSXXLDKKAQXAFIEYLLAGGPSSGEPPPEGS (synthetic construct; SITE 2: note = 2-Aminoisobutyric Acid; SITE 12: note = L-ornithine; SITE 13: note = alpha-methyl-leucine; SITE 17: note = Lysine is chemically modified through conjugation of the epsilon-amino group of the Lysine side chain with (2-[2-(2-Amino-ethoxy)-ethoxy]-acetyl)-(gamma-Glu)) [Example 152]										0.259 nM	23.2 nM	4.03 nM	491 nM	6.91 nM	1090 nM
YXQGTFTSDFSRXLDKKAQXAFIEYLLEGGPSSGAPPPSGS (synthetic construct; SITE 2: note = 2-Aminoisobutyric Acid; SITE 13: note = alpha-methyl-leucine; SITE 17: note = Lysine is chemically modified through conjugation of the epsilon-amino group of the Lysine side chain with (2-[2-(2-Amino-ethoxy)-ethoxy]-acetyl)2-(gamma-Glu)-CO-(CH2 )16-CO2H; SITE 20:) [Example 144]	0.23 nM	46.2 nM	4.02 nM	990 nM	14.8 nM	2600 nM									
YXQGTFTSDFSXXLDKKAQXAFIEYLLEGGESSGAPPPGGS (synthetic construct; SITE 2: note = 2-Aminoisobutyric Acid; SITE 12: note = L-ornithine; SITE 13: note = alpha-methyl-leucine; SITE 17: note = Lysine is chemically modified through conjugation of the epsilon-amino group of the Lysine side chain with (2-[2-(2-Amino-ethoxy)-ethoxy]-acetyl)-(gamma-Glu)) [Example 161]										0.555 nM	87.3 nM	5.22 nM	963 nM	4.83 nM	902 nM
YXQGTFTSDFSXXLDKKAQXAFIEYLLAGGPSSGEPPPSGS (synthetic construct; SITE 2: note = 2-Aminoisobutyric Acid; SITE 12: note = L-ornithine; SITE 13: note = alpha-methyl-leucine; SITE 17: note = Lysine is chemically modified through conjugation of the epsilon-amino group of the Lysine side chain with (2-[2-(2-Amino-ethoxy)-ethoxy]-acetyl)-(gamma-Glu)) [Example 153]										0.218 nM	16.8 nM	7.09 nM	488 nM	14.7 nM	1210 nM
YXQGTFTSDFSXXLDKKAQXAFIEYLLEAGPSSGEPPPSGE (synthetic construct; SITE 2: note = 2-Aminoisobutyric Acid; SITE 12: note = L-ornithine; SITE 13: note = alpha-methyl-leucine; SITE 17: note = Lysine is chemically modified through conjugation of the epsilon-amino group of the Lysine side chain with (2-[2-(2-Amino-ethoxy)-ethoxy]-acetyl)-(gamma-Glu)) [Example 135]	0.246 nM	23.4 nM	3.3 nM	472 nM	2.53 nM	557 nM									
YXQGTFTSDFSXXLDKKAQXAFIEYLLEGGPSSGAPPPEGS (synthetic construct; SITE 2: note = 2-Aminoisobutyric Acid; SITE 12: note = L-ornithine; SITE 13: note = alpha-methyl-leucine; SITE 17: note = Lysine is chemically modified through conjugation of the epsilon-amino group of the Lysine side chain with (2-[2-(2-Amino-ethoxy)-ethoxy]-acetyl)-(gamma-Glu)) [Example 130]	0.411 nM	60.5 nM	4.29 nM	865 nM	3.74 nM	1080 nM									
YXQGTFTSDFSKXLDKKAQXAFIEYLLEGGPSSGAPPPSGS (synthetic construct; SITE 2: note = 2-Aminoisobutyric Acid; SITE 13: note = alpha-methyl-leucine; SITE 17: note = Lysine is chemically modified through conjugation of the epsilon-amino group of the Lysine side chain with (2-[2-(2-Amino-ethoxy)-ethoxy]-acetyl)2-(gamma-Glu)-CO-(CH2 )16-CO2H; SITE 20:) [Example 142]	0.216 nM	14.1 nM	4.37 nM	391 nM	3.49 nM	1230 nM									
